This note sets out measurements from the DeepSol protein solubility set.

This data set can be described thus: soluble on expression in E. coli; label from the status in PepcDB or PDB records.
In the case of “MGSDKIHHHHHHSCSSKPANTAKGEKGSDKTGKDLELKLSFQEGIAPGESLNEKLDFMEKLGVVGFEPGGGGLAGRVNEIKQALNGRNIKVSAICAGFKGFILSTDPAIRKECMDTMKEIIAAAGELGSTGVIIVPAFNGQVPALPHTMETRDFLCEQFNEMGTFAAQHGTSVIFEPLNRKECFYLRQVADAASLCRDINNPGVRCMGDFWHMTWEETSDMGAFISGGEYLQHVHVASRKRRSMPGEDGDADNYINGFKGLKMIGYNNYVSFECGCQGDRNVVVPAAVKLLREQWEQA”, the “soluble on expression in E. coli” value is reported as “not soluble”.
The result for “MSLTWYHELGIKYPLFQGGMAWASNAELVAAVSNNGALGIIGSGGRTANELRRMIRKTKTLTSQPFGVNLMLLDKNIKQLLEVICEEKISVVTTGAGSPKEIIDTIIANNIKLFPVVPNKEIALKMLNLPISGIIVEGNEAGGHVGSQNLASLLKEIAPICPLPLIAAGGIYDHHTASLANILGANGVQVGTAFLLAKECQISPIYQELICKGEENGTSLISDKNGHLTRLLNISSEYPLNKSLKAAVEKGDLINGAFMAGSSSAYLEKIEPVENIIQRIMKKEGHHHHHH” reads “not soluble”.
Consider “MGSDKIHHHHHHMSNEQLADLTQPQRDRLAFVELRVRFIGEIRRQDLVTRFGIQSAAASRDLALYKELAPGNIDYDSKGKSYVLGPDFRPVFDFPPERVLSWLTQGFGDGEPMRLKAWVASESPSRLTHPDLDVLASVTRAIHQECPLGIEYHSISSGRTEREIVPFALIDNGLRWHVRAFDRKSQEFRDFVITRIKRPVLIRDAEVQSHERSDQDIQWTRIVELEMVPHPDQPRPEITEMDYGMVRGSLRMKLRAATAGYILRQWSVDCSPDHSLRGYEFRLWLKDHLALYGVKNAVLAPGYRSPDQNKGEQ”, for which the “soluble on expression in E. coli” value is listed as “not soluble”.
For “EERFAELFAAVDWISLGGGIHFTAENYPLETFAERLKHFSKTYDVTIFLEPGEAAITKSTTLEVSVLDTLYNEKNLAIVDSSIEAHMLDLLIYRENAKLEQNQGPYEIMVCGKSCLAGDIFGTFRFPEPLKIGDRLSFQDTAGYTMVKKNWFNGVTMPAIVIKECNGALTIQRQFSYNDYQKSLS”, the “soluble on expression in E. coli” value is “not soluble”.
The value for “AAASMDAVTAEKFSPASFLDKKETGVLHFVKYHGLGNDFILVDNRDSSEPKITQEQAAKLCDRNFGVGADGVIFAMPGVNGTDYAMRIFNSDGSEPEMCGNGVRCFARFIAELENLQGKHSFTIHTGAGLIVPEIQDDGQVKVDMGTPILKAQDVPTKLSGNKGEAVVEAELVVDGVSWNVTCVSMGNPHCITFGKKGGPNLKVDDLNLPEIGPKFEHHEMFPARTNTEFVEVLSRSHLKMRVWERGAGATLACGTGACALVVAAVLEGRADRKCTVDLPGGPLEIEWKQEDNHIYMTGPAEAVFYGSALLHHHHHH” was “soluble”.
Take “DIELTQSPPSLPVSLGDQVSISCRSSQSLVSNNRRNYLHWYLQKPGQSPKLVIYKVSNRFSGVPDRFSGSGSGTDFTLKISRVAAEDLGLYFCSQSSHVPLTFGSGTKLEIKR”: the “soluble on expression in E. coli” value is given as “soluble”.
As for “MRGSHHHHHHGSKVRGKYDGPKINDYDKFYEDIWKKYVPQPVEVKQGSVYDYYDILEELGSGAFGVVHRCVEKATGRVFVAKFINTPYPLDKYTVKNEISIMNQLHHPKLINLHDAFEDKYEMVLILEFLSGGELFDRIAAEDYKMSEAEVINYMRQACEGLKHMHEHSIVHLDIKPENIMCETKKASSVKIIDFGLATKLNPDEIVKVTTATAEFAAPEIVDREPVGFYTDMWAIGVLGYVLLSGLSPFAGEDDLETLQNVKRCDWEFDEDAFSSVSPEAKDFIKNLLQKEPRKRLTVHDALEHPWLKGDHSNLTSRIPSSRYNKIRQKIKEKYADWPAPQPAIGRIANFSSLRKHRPQEYQIYDSYFDRKEAVPRFKLRPSLISS”, the “soluble on expression in E. coli” value is recorded as “soluble”.
For the sequence “MGSDKIHHHHHHMKTVMLMLTSLLMAGCSVLGKREAAEPPYELLKHDGAFEVRRYGPMVIAETILDEKSYSAASGKGFNRLAGYIFGKNRSKTSISMTAPVLQERSSEKISMTAPVLQQPQKGGWSMAFVLPEGFTLQSAPEPLDPEVKLRELPPSTIAVVTFSGLHSAANLEKYSRQLQAWLKKQGYRALSEPKLASYDPPWTIPFLRRNEVQIRIEPDHGESGKE”, the “soluble on expression in E. coli” value is reported as “not soluble”.
On to “MGMVGFRRSRHRRLGAGCGRAGGCMSGVEVITFGCRLNTYESEVMRAEAEKAGLNNAVLVNTCAVTGEAVRQARQAIRRARRDNPHARIIVTGCAAQTEKQTFADMPEVDAVLGNEEKLKSASYRALPDFGVSAEEKLRVNDIMSIKATAPQMVKHIDGHVRAFIQVQNGCDHRCTFCIIPYGRGNSRSVPMGAVVDQARRLTESGYCEIVLTGVDATSYGADLPGEPSLGYLAKTLLKQVPDIIRLRLSSIDSIEADHHLMDLIADEPRFMPHLHLSLQHGDDMILKRMKRRHLRADAIRFCNEVRSLRPDIAFGADMIAGFPTETEEMLENAATLAEECGISSLHVFPYSPREGTPAVRMPQLDRALVKERAGRLRARGEALKQAHLQNMVGSVQTVLVENSGFAHTDNFTLVAAPDLAPRTLAQVAITGHNGKHLNMKLLAADAALEHHHHHH”, for which the “soluble on expression in E. coli” value is reported as “not soluble”.
On to “MVKKITVYTAFGQFLKMVELQMEQEMEKMNEIETDKLPIDHQLSDYQNNIESGNDRQVQSCPVDVSIPKEVMKCASCPLLCFNCSVQMPVSPVPTTIESRKINETTQLMMEFWKIVASKSEEEKLPSLFENVEGLFSVPFSTFGTWDDDTLSGVTSLNFEKSDEQLSEQDDDKTTVWSSNFPSAHVLTVYENSEQKTDEMADDEMSDTTSSFLSTLSTTMSAQVPALHLLQRVQLQRSVIKKQKKIIDSFSELQNLNKKLADLRKKHRD”, for which the “soluble on expression in E. coli” value is “not soluble”.
As to “MKSYLVGGAVRDALLGLPVKDRDWVVVGATPQQMLDAGYQQVGRDFPVFLHPQSREEYALARTERKSGAGYTGFTCYAAPDVTLEADLLRRDLTVNALAQDADGAIIDPYGGQNDLRKRLLRHVSPAFSEDPLRVLRVARFAARYAHLGFRIAEETQALMAAIVEAGELAHLTPERVWKETESALTTRNPQVFFQTLRDCQALKVLFPEIDALYGVPAPAKWHPEIDTGLHTLMTVTMAAMLSPDVDVRFATLCHDLGKGLTPKALWPRHHGHGPAGVKLVEQLCARLRVPNDIRDLAKLVAEYHDLIHTLPILQPKTLVKLFDSIDAWRKPQRVQQIALTSEADVRGRTGFEASDYPQGRLLLEAWEVAQSVSTKEVVAAGFKGAEIREELTRRRIAAVAQWKEQRCPQPQG”, the “soluble on expression in E. coli” value was “not soluble”.
For the sequence “MGSDKIHHHHHHMDDGYIAEFALYRSLMKNLPWDTYQLFIDVARNGGLTGAVQSTGLSAATLGRRMVELEQKLGRILFHRAQTGYTLTVDGRALLDHLKSFEAAERGIDLWRQQTSQPALVRVTAGTWISWLIAQNLPKLCRSNDRFRLDLHITEERAALAHRETDIGIRAFEPQESNLARVPLGEVAYAAYRHRLADELEGQPWIAVAQDAAISAYLKWPHQHKAEQILITVNRPRSLKDMAVSGMGLAVLPCFVGDSHPQLQRVGDEITELRHRQWLVTNNDDRHRSEIRDCAGRLVTLMRDFSDAFAGRR”, the “soluble on expression in E. coli” value was “not soluble”.
For “MGSDKIHHHHHHMFKESPIIRRVSRQIMVGNVPVGGDAPITVQSMTNTLTTDVAATVAQIKALEAVGADIVRVSVPTMDAAEAFREIKKQVNVPLVADIHFDYRIALKVAEYGVDCLRINPGNIGNENRIRSVVECARDNNIPIRIGVNGGSLEKDIQEKYTEPTPEALLESAMRHVDILDRLNFNEFKVSVKASDVFLAVESYKLLAKQIDNPLHLGITEAGGLRSGSVKSSVGLGLLLAQGIGDTIRISLAADPIEEIKVGFDILKSLKLRSRGINLIACPSCSRQEFDVVSTVNALEQRIEDIMTPMDVSIIGCIVNGPGEAMVSDLGLTGSSKKSGYYLDGIRQKERFDNTDLVDQLEQRIRAKARSMSERLDEKNKIDILTKD”, the “soluble on expression in E. coli” value is “not soluble”.
With “MGSIEEVLLEERLIGYLDPGAEKVLARINRPSKIVSTSSCTGRITLIEGEAHWLRNGARVAYKTHHPISRSEVERVLRRGFTNLWLKVTGPILHLRVEGWQCAKSLLEAARRNGFKHSGVISIAEDSRLVIEIMSSQSMSVPLVMEGARIVGDDALDMLIEKANTILVESRIGLDTFSREVEELVECFAAALEHHHHHH”, the “soluble on expression in E. coli” value is “soluble”.
Consider “MGSDKIHHHHHHYGLGRSWAPGLSQLDGVPRLGGTLDAPLVLNDASELSATPIHIHTRPAAHGDALIEAFRAELTAAQAEDRPVCVSAARHSMGGQSLPRGGHAITVDNAWIEPDTANQTYRVNGGARWRDVIAALDPIGFSPAVMQSNHDFGVAATFSVNAHGWPVPYGPMGATVREIRMVLPGGDLVTASRTENTDLFNLAVGGYGLAGLIVDMEVDMVPNQRLAPSFTPMPAADFPAAFRAAVDDPTMPMGYGRLNVTRESLFEEALLVTYSPTPDQSDIPPAIESGWLSYAASYLYRGQVGREGMKDWRWWVEADLGPRLAGESTRNSLMNEPVITLDDRDPTRVDILHEYFVPFDAFDGFLEACRDVIPDAFVEFLNVTLRFVDSDTDSLLPHSPTPRIAAVMSFTQEKTTRAEADHARMTRALIDRIVAIGGTYYLPYRPHATLDQFTAAYPNAPEFAAAKRALDPTLTLRNNLWDSYLADL”, for which the “soluble on expression in E. coli” value is reported as “not soluble”.
The result for “MGATEVGDENAGTVSAQPCSRQCCLEDFWALLRRHPAPEPPPWTPVLYPLRTSLPSTLAVFLNLGLSFPKTSITSSWRDWTLHLPFAWSLSVRGPSQCVHVRGGGDHIRRRGG” reads “not soluble”; that for “MSLSDFDYIQKNTPPEFPEKFKTALLPENIKKNRYSDVLANDDTRVKLNNNGYINANYIFQGRMIASQAPTIETIPDFLQMIIEQQVPIVIMLTKCKEKTRIKATPYWGYKSEGGKKVFGNYTVNTIDTLYDDVEEDKFMEDIQIRYLQIIYEDGVYSFIQIHYMGWPDFGVPLNPKDALDIVYIQYIIGTTSKFSNRNLVCVHCSAGVGRTGVYCLLSRIVEMVTYEILEKSETYSKQRSTSSSSKVREVEDRIEEILLSHPVISYEDCEVILPELVLSIRNERSKMVQTKEQYDFICETVNCFYEDALDSINQYYEVIDALTPLLQEKHSEIVQDFIKRNEEGHHHHHH”, “soluble”; that for “MGSDKIHHHHHHAQKGVDNGTQFGSGEDSVRCITNISLFVPYAKAGNFKDAYDFWKIVYDECPAATKDIYLYGVKIMGWKIAQEKDPAKKNALIDDLMGVYDKRVKYFGNDRRYGKDWIVARKVQDYLAQTGDNADYNQAYTWLKEIVDEKGADTEALGLSLFSFSSMKKMLNDPNFKEQYIQDYLKVSAGLDAQLKAAQAANNQKEVNALTAYKSGVDNAFANSGAADCETLQNLYAAKIEENKDNLPYLKETISLLRRTGCQEIEAYFLASDYAYRQEPSAEAAVGLGKKAVKIKDYDTAIKYFDEAANLETDATSKADDYYMIALLLFEQNAYSKARQYCQKALEVNPNYGNAYLLIGKMYAATSKSVFPNDGVLARAAYNAAIDKFEKAKQVDPSVAEEANTLISSYRAHLPSTEEIFMHPDLEKGKPFTVGGWIGERTTIR”, “not soluble”.
For “KNSINTIKLIDDIIALHNDPKGNKLLWNDNWQDKIINRDLANIFEKIDESVSELGGLEMYQEMVGVNPYDPTEPVCGLSAQNIFKLMTEGEHAVDPVEMAQTGKIDGNEFAESVDQLSSAKNYVALVNDRRLGHMFLIDIPSNDQETVGYIYQSDLGQGALPPLKIADWLNSRGKDAVSLNKLKKLLSREFNLLSDDEKRALISETLDIHKDVSNVELDRIKRDRGVDIYLTEYDVNNFYENIETLKSKLSNYDKKLSKPK”, the “soluble on expression in E. coli” value was “soluble”.
